Experimental data reported in PMC7067740, “NDRG2 Protects the Brain from Excitotoxicity by Facilitating Interstitial Glutamate Uptake” (Translational Stroke Research, 2019).

Target: endogenous Na+/K+-ATPase β1 (mouse (endogenous in cultured mouse …, UniProt P14094 1-304))
Experiment: cell-based or functional assay

B1: endogenous NDRG2 (N-myc downstream regulated gene 2) (natural protein, UniProt Q9QYG0 1-371, looked up)
chain: MAELQEVQITEEKPLLPGQTPETAKEAELAARILLDQGQTHSVETPYGSVTFTVYGTPKPKRPAIFTYHDVGLNYKSCFQPLFRFGDMQEIIQNFVRVHVDAPGMEEGAPVFPLGYQYPSLDQLADMIPCILQYLNFSTIIGVGVGAGAYILSRYALNHPDTVEGLVLINIDPNAKGWMDWAAHKLTGLTSSIPDMILGHLFSQEELSGNSELIQKYRGIIQHAPNLENIELYWNSYNNRRDLNFERGGETTLKCPVMLVVGDQAPHEDAVVECNSKLDPTQTSFLKMADSGGQPQLTQPGKLTEAFKYFLQGMGYMASSCMTRLSRSRTASLTSAASIDGSRSRSRTLSQSSESGTLPSGPPGHTMEVSC
- half-life of endogenous Na+/K+-ATPase β1 in astrocytes after TAT-Ctrl treatment, with 100 μM emetine, immunoblot: 1.83 h
- half-life of endogenous Na+/K+-ATPase β1 in astrocytes after TAT-β1(244–263) treatment, with 100 μM emetine, immunoblot: 1.08 h
